Assay results published in article doi:10.1101/2025.05.22.655505 (bioRxiv, 2025).

Experiments:
[1] = target: Mpox A28 (OPG153), residues 2-361, recombinant antigen (Monkeypox virus; template GenBank …, UniProt A0A7H0DNC4); assay: ELISA
[2] = target: VACV A26 (OPG153), residues 2-361, recombinant antigen (Vaccinia virus strain IHDW (GenBank …, UniProt P24758, strain)); assay: ELISA

B1: 10M2146, human anti-A28 monoclonal antibody, IgG1 (antibody, V domains shown)
VH: EVQLVQSGAEVKKPGESLKISCKGSGYSFTTHWIGWVRQMPGEGLEWLGIIYPGDSETKYSPSFQGQVTISVDKSINTAYLHWSSLKASDTAMYFCARRPKNYYDASGYYNWLDPWGQGTLVTVSS
VL: EIQMTQSPSTLSASVGDRVTITCRASQSLSTWLAWYQQKPGKAPKLLIYKASILESGVPSRFSASGSGTEFTLTISGLQPDDFATYYCQQYNSYLGAFGQGTKVEIK
B1: binds [1]; binds [2].
